System: MipZ dimer
Assay: Concentration dependence of the MipZ ATPase activity
Format: biochemical, Caulobacter crescentus
Description: Figure 2 Biochemical Analysis of MipZ Dimerization (A) ATPase cycle of MipZ. See the main text for details. (B and C) SPR analysis of MipZ self-association. MipZ or its mutant derivatives (3500 RU) were immobilized on a sensor chip and tested for homotypic interaction with the respective soluble protein (0.5 μM) in the presence of ADP (B) or ATP (C). After the binding phase, the chip was washed with buffer lacking protein and nucleotides to follow the dissociation reaction. The rate constants (koff) determined for the dissociation of the MipZ and MipZ-D42A complexes are 0.83 min^−1 and 0.067 min^−1, respectively. (D) Nucleotide-dependent dimerization of MipZ. MipZ-D42A was incubated with ADP (blue), ATP (orange) or ATPγS (red) and subjected to size exclusion chromatography. (E) ATPase activity of MipZ and its mutant derivatives. The graph gives the average turnover rate (kapp, average turnovers/min per molecule of MipZ) of the different MipZ derivatives (6 μM). Data represent the average of at least three independent experiments (±SD). Note that consistent with a critical role of the metal cofactor in dimerization and catalysis Mg^2+ was required for ATP turnover (Figure S2H). (F) Concentration dependence of the MipZ ATPase activity. The average turnover rate of MipZ (kapp) was determined at the indicated protein concentrations. Fitting of the data to a model that relates kapp to the relative abundance of dimers at the indicated MipZ concentrations (see the Experimental Procedures) yielded values of 8.0 μM (±1.2 μM) for the apparent equilibrium dissociation constant (K) of the MipZ dimer and 0.67 min^−1 (±0.03 min^−1) for the turnover number (kcat) of MipZ molecules in the dimeric state. The rate of dimer formation (kon ∼ kcat/K) derived from these values is 1.4 × 10^3 M^−1 s^−1. Data represent the mean of two independent experiments. See also Figure S2. TEXT PRINTED IN THE PICTURE: (F) MipZ: K = 8.0 μM; kcat = 0.67 min^-1 […]
According to the law of mass action, MipZ exists as a mixture of monomers (assumed to be largely in the ATP-bound state) and dimers, the equilibrium ratio of which depends on the total concentration of MipZ molecules in the reaction. […] Its average turnover rate (kapp) increased with rising protein concentrations and finally approached a plateau that likely reflects a situation in which all MipZ molecules have transitioned to the active, dimeric state. […]
β-galactosidase, MipZ, and FtsZ activity assays are detailed in the Supplemental Experimental Procedures. […]
obtained from crystals flash frozen in a solution of 95% 2 mM, sa mp le s were taken and analyzed for the amount ethanol/50 mM Tris (pH 8.5), and collected at ID23-2, of [α-32P]-GDP produced in the reaction as described ESRF (Grenoble, France). […]

B1: MipZ: P loop ATPase and cell division inhibitor of Caulobacter crescentus; hexahistidine-tagged in vitro, YFP fusion in FRAP (protein)
chain: MAETRVIVVGNEKGGAGKSTIAVHLVTALLYGGAKVAVIDLDLRQRTSARFFENRRAWLDNKKIELPEPLALNLSDNDVALAERPEEEQVAGFEAAFARAMAECDFILIDTPGGDSAITRMAHGRADLVVTPMNDSFVDFDMLGTVDPVTLELTKPSLYSLTVWEGRKQRALSGQRQAMDWVVLRNRLATTEARNRKRLEDRLNALAKRVGFRIGPGLRDRVIYRELFPFGLTIADLSPQVRPVPVSLQHLAARQELRALMHSLGLSAYSGETMLAAQ
modifications: left off: His6, end not stated, state not stated
notes: hexahistidine-tagged in vitro, YFP fusion in FRAP
turnover number (kcat) of MipZ molecules in the dimeric state (ATP hydrolysis, fit of kapp vs MipZ concentration): 0.67 min⁻¹ | rate of dimer formation (kon ∼ kcat/K) (derived from K and kcat): 1400 M⁻¹ s⁻¹ | Kd (fit of kapp vs MipZ concentration, 2 mM ATP, read-out: apparent equilibrium dissociation constant (K) of the MipZ dimer): 8 µM | lifetime of the sandwich dimer (τ ∼ 1/kcat) (hydrolysis-driven dissociation): ~90 s
